These results are taken from the DeepSol protein solubility set.

The series is described as follows: soluble on expression in E. coli; label from the status in PepcDB or PDB records.
In the case of “MPNTIRLHRVLSAPPERVYRAFLDPLALAKWLPPEGFVCKVLEHDARVGGAYKMEFLAFASGQKHAFGGRYLELVPGERIRYTDRFDDAGLPGDMITTITLAPLSCGADLSIVQEGIPDAIPPENCYLGWQQSLKQLAALVEPDMPGLEHHHHHH”, the “soluble on expression in E. coli” value was “soluble”.
As for “MPNTLKRLIPDPEVIKLQQLLSSNGYFEEIKPSHGLFDGITFDNAVLFQLQHIYKDGDPLKPDGVIGAKTWWALKNPSGEKQRNHLSASIPAGLTTKRHQLIELIIEEHSKPVFEVPDGSNRSPDIDGYWGNTGVIGLAWCCAFVSWVLKEVTDSYPIASTHHLGVQRMWRTAKRLNMTTEIPKPGDIFVQLFAGGKGHTGFVVAVTEDGETIYTCEGNCGNRLKIGKRSNNSELHFIDCLQDNQTLDFERMAFDVNSTIDNTTRLEHHHHHH”, the “soluble on expression in E. coli” value is given as “not soluble”.
Turning to “MPPCPPQQNRNRLSQLPVGELGEMELTWQEIMSITELQGLNVPSETSFEPQAPTPYPGPLPPPTYCPCSIHPDAGFSLPPPSYELPASTPHVPELPYSYGNVAIPVSKPLTLSGLLNEPLPDHLALLDIGLPVGQPKPQEDPESDSGLSLNYSDAESLELEGMEAGRRRSEYADMYPVEYPYSLMPNSLAHPNYTLPPTETPLALESSSGPVRAKPAVRGEAGSRDERRALAMKIPFPTDKIVNLPVDDFNELLAQYPLTESQLALVRDIRRRGKNKVAAQNCRKRKLETIVQLERELERLSSERERLLRARGEADRTLEVMRQQLAELYHDIFQHLRDESGNSYSPEEYVLQQAADGAIFLVPRGTKMEATD”, the “soluble on expression in E. coli” value is on record as “soluble”.
Then “MPPKIAEVIQHDVCAACGACEAVCPIGAVTVKKAAEIRDPNDLSLYEKGAAFQVCEGCLTCSRICPVVDGFIENELLNVRKFFGAKSKDNAGSQDGGVTSGILKALFNKGEIDCAVGITRNENWEPEVVLLTSAEDVERTRGTKYTSDPVVAALREAFEKYDRIAVVGVPCQAHAARLIRENVNEKIVLIIGLLCMESFHHDVMLDKIIPEIMKVNVRDIVKMEFTKGKFWVYTKDGEVHSVPIKDIAKYARNPCHHCCDYTSVFADISVGSVGAPDGWNSVFIRTEIGEKYFDMVRDEMEIMEDPKPGLELVGKLIEMKRKGNAEHFQEVCKEFSFETGIRSETVLEHHHHHH”, with “soluble”; and “MPPRRDLKKILIIGSGPITIGQAAEFDYSGTQAVKALRGAGYRVVLVNSNPATIMTDPELAERTYIEPLDLEHLEGILAREAPDALLPTLGGQTGLNLAMALHEEGILQKYGVELIGAKAEAIRKGEDREAFQEAMQRIGLEVPRGQLVGSVEEGLHFAREVGFPVVVRPSFTLGGTGGGIAHDEAELVEVLSRGLTLSPVHTALVEESVLGWKEFELEVMRDHADTVVIITSIENVDPMGVHTGDSITVAPAQTLSDVEYQRMRDAAKAIIREIGVETGGSNIQFAVDPKTGRQVVIEMNPRVSRSSALASKATGFPIAKIAALLAVGYRLDELPNDITRKTPASFEPTIDYVVVKIPRFAFEKFRPLRNTLGELKDELTTQMKSVGEVMAIGRTFKEALMKALRGLERDVRALAGVRTEELEKKLYPNPDRVYAVMELLRRGMPVEELYQATRIDPWFLHQMKEVVEAEEWLKTHPPKDREDWRFYKGLGLTDRRIGELVGKGEKEVRAERKALGVVPVYKTVDTCAAEFEAYTPYHYSTYELEDEVWPSQKPKVVILGSGPIRIGQGVEFDYATVHAVWALKEAGYETIMVNSNPETVSTDYDTADRLYFEPLTLEDVLNIVEHEKPIGVIATLGGQTPLKLAKGLEEAGVRLLGTPFSAIHQAEDREAFHALCQRLGIPQPEGRVAQSPEEALRLAPEVGFPLLVRPSYVLGGRAMQVVRDEGELKRYLEEVYAPLEERPSILLDRFLEGAVELDVDALSDGQEVMVAGIMEHVERAGVHSGDSATLLPPVHVPEEALKKVRDYTRRLALALGVRGLLNVQYAVVGEEVYVLEANPRASRTVPFVSKAIGVPLAKLAALIAVGKTLKELGVRDLDPVPPYYAAKEVVIPWIKFPGVIPELGPEMRSTGESMGIDQDPYLAYYKAELGAGQRLPLSGRVRFIGEGLEDLKALYQEAGFALTEGEDYDLLISLVPDPELRRAVERGLPFITTREGAWWSLKAILRARESGLRVQSLQDWHQKAPRG”, with “soluble”; and “MPQGRGDGGVRMAAISLTKVRETAPALVDLYKTAGVSLTKHGMAGTRAAVYLVVDYSGSMKPYYKDGSVQALADRVLSLSAHLDDDGIVPVVFFSTDVDAVTEIALADHQGRIERIVAGLGHMGKTSYHLAMDAVIDHYLDSGARHPALVVFQTDGGPINRLAAERYLCKAAPLPLFWQFVGFGDPDSRQFEYLRKLDELAVPGKRVIDNAGFFHAGRDPRKVTDAELYDRLVGEFPQWLAAARAQGIARPSLEHHHHHH”, with “not soluble”.
Turning to “MPQGSALSDTERAQLDVMKLLNVSLHEMSRKISRSRHCIRVYLKDPVSYGTSKRAPRRKALSVRDERNVIRAASNSCKTARDIRNELQLSASKRTILNVIKRSGVIVRQKLRPAPLLSADHKLKRLEFAKNNMGTNWSKVVFSDEKKFNLDGPDGCRYYWRDLRKEPMVFSRRNFGGGTVMVWGAFTEKKKLEIQFVSSKMNSTDYQNVLELELSKYLRHYSGKDFRFQQDNATIHVSNSTRDYFKLKKINLLDWPARSPDLNPIENLWGILVRIVYAQNKTYPTVASLKQGILDAWKSIPDNQLKSLVRSMEDRLFEIIRTQGNPINY”, the “soluble on expression in E. coli” value is on record as “not soluble”.
For “MPQPAARVTDMHVCPMVTPGLPPVPHVGGPLLPPGSPSVFIGGLPAATLGTLALCSGPVDVVIMGSVKVLICGKPAARMGDICAHGGTIVSGYPQVLIG”, the “soluble on expression in E. coli” value is given as “not soluble”.
Turning to “MPQQTVEVKEVDVLIRGIWRKKKFTDIQKGQTFKIEENGRTKKYIARTDPYWDDMFETYIIDLLDKNKIRRNKLEHHHHHH”, the “soluble on expression in E. coli” value is “not soluble”.
Then “MPQTSAWQLNDTTARPPPPPPPPGSEAGGSDGASMNGANTLPRVSKRVSAAGKTSNIPRFKRPHLPHSTRPLSAVLTSSSSPVVHRKISPSSSAPSTSSAHRRFSHLPQQHFHHHIHHNQTAVISEETLTTPRASTLNLNQTSVFPTAISQGSMPNSGTNTAEASMTSSVCAMETEGTNGDELAESRDMVSEMQRRCRIGPSGYPHLLKAKRLRFYRNGDQYFKGIQYALQSDRVKSMQPLMEDLMKTVICDSTALPHGIRHIFTIDGAQRITSVDQFEDGGGYVCSSTDAFKPVDYSRAAEPSWRLTLANRYNRHLETKKLALSVVEPCHENTDFVFPRIIKVIRNGVKPRRISRHLLNKKTARSFDQVLRDLTFVVKLDSGAIRKLFTLSGRPVLSLQDFFRDDDVFVAYGGNEKMAADDLLVASEEHKSVGSGTSSNMRRTSRRSTMPNRNESLRHDRSGSVIPDQDQQRLPPLLDEKFQLVRLIGDGNTAVVYEVIDKTNNDDRKAMKVIARENVIGKEHLIEMELAILQKIDHTFIVQLYDHWFVDDSYYLSLELIEMGDLFEHLRIVRRVPERDAVRMMTCLGQALEYIHELGIVHRDVKLENLLIVKDEFGELGVKLADFGLAAEMPKDFGVLSTICGTPTYVAPEVLNKTGYGCKVDIWAAGVILYAILVGFPPFQSSDGSEQDLFSAIMSGEFSFPSPSWDDVSWSVRHLIMCLIHTDPFHRYSAGELLNDEWMVNLGDVDPEYEEWAHRFVQSKMHVEEEQETPYEYYTSRRTSMDELSESAAVEFSYSCES”, with “not soluble”; and “MPRDVQVLPIATNTKVLRARSWSRLRFEIEYALERGTTSNSYVIEGDKTAIIDPPVESFMKIYLEALQQTVNLKKLDYVILGHFSPNRIPTFKALLELAPQITFVCSLPAAGDLRAAFPDDNLNILPMRGKETLDLGKGHVLKFLPIPSPRWPAGLCTYDVQTQILYTDKIFGAHICGDDVFDDNWESFKEDQRYYFNCLMAPHAIHVEAALEKISDLQVRLYAVGHGPLVRTSLIALTQAYADWSKAQKDREISVALLYASAYGNTATIARAIALGLTKGGVAVKSINCEFATPEEIQTNLEQVDGFLIGSPTIGGHAPTPINTALGIVLKVGDNNKLAGVFGSYGWSGEALDMIEGKLRDAGYRFGLDTLKVKFKPDDVTLKFCEEVGTDFAQTLKKAKKVRVPQQAATPVEQAVGRIVGSVCVITAKQGDVSTGMLGSWVSQATFNPPGLTVAIAKERAIESLMYPGGKFALNILSEGNHLEYMKHFRKNFAPGEDRFANFTTTEADNGCTVLADALAYVECSVDQRLECGDHWVVYATVDNGKLLKPDDVTAINHRKTGNHYLEHHHHHH”, with “not soluble”.
In the case of “MPRLILASTSPWRRALLEKLTIPFECAAPDVDETPMPGEAPRQLVLRLAQAKAQSLAARFPNHLIIGSDQICVLDGEITGKPLTEEKARQQLAKASGNIVTFYTGLALYNSASGHLQTEVEPFDVHFRHLSEAEIDDYVRKEHPLHCAGSFKSEGLGIALFERLEGRDPNTLIGLPLIALCQMLRREGFNPLQQ”, the “soluble on expression in E. coli” value is “not soluble”.
As to “MPRSDGFSPRKNLRRSARDHSRSYAGQCNEDFDDMYAPSSRRRSSGGVDGNGYTRSGRKINHNRYYEEEYHEAISSEEDERRYRTRRSSNSMTYRQQVMQAIDESKRNQKVPPAKRKRIYLSDEEEEDFAEAAHVENTVPERATRRSTRRRSSMHEELGVSEQEESPVRRTRKAAKRLGSEQPEENLAADDPLPMEGGGEIVLPIAEIDGMAEQENEDLIEKIGREEEEEGAEEDEQSGEKDPEEEEDDSSNAESSEESTAPRQYSLRRRQPVVQFNASEARENRRARLEHHRVANQNRHHRNRNGSRRRRSDSDSDSDDMVLPRPDKRQSRPHMHNRGERERGRFMPINMTEKELQSAQHILMDRMRKTDAGQGASDIDPMSVDSSVGFDQVGGLGHHIQSLKEVVLFPMLYPEVFEKFRINPPKGVVFYGPPGTGKTLVARALANECRRGANKVAFFMRKGADCLSKWVGESERQLRLLFDQAYAMRPSIIFFDEIDGLAPVRSSKQDQIHASIVSTLLALMDGLDGRGEVVVIGATNRLDTLDPALRRPGRFDRELRFSLPDLNARRQILDIHTSKWEENKPIPETLDAIAERTSGYCGADLKFLCTEAVLIGLRSRYPHIYMCSERLKLDVATIKITSEHFGHAMRRITPASRRDLTIPSRPLDERTSILLGDTVSNLISLRIPQGYRCVENAMATASSELEQVVRALEPNPTVPAIRLLLCGSEQLADGGQTSYVLPAILAKLDHLPVFSLSVSSLLTDGRPEEAFSNAIQSAMRASATGPCIMLLPSIDEWIKVIPVSVQHMLITCLESMTGFTPILFLSTLDTSFEDAPEYVTEIFRHANCITLNPSRRTIRQKYFEHVIEKINTPPKVFDPRLMRDRRFVEFVEPVDPDEAEDYYEIIETPICMQDIMEKLNNCEYNHADKFVADLILIQTNALEYNPSTTKDGKLIRQMANTLRDAIDDLIECELDESFVERIETVSRMLQDAGVTPTSDKLLTEIPKGFARKKAWSMTNSLAKEIEQWTSEREAENQKMLSKLGVAAPTLELVVVPVEDMKSEEGTSTSTDGVPASAGNKKKLLKKKKGQKKSKTGESEEHDEDSTVEDAGEDTIVENLEIKKNQETPNSEHDIEMKDASKDSTPSVQISIAEKELIVSKPATCELIQCCVEKSEGWSVSELERLSSVLSHTIERFRDEWNRENLPAQLTQIVREWQTADDSNNTIVNGTLNKSNGNLANGH”, the “soluble on expression in E. coli” value is reported as “not soluble”.
As to “MPSCEINLIFNDSEEPVTLRDTGIIMLVPVILRSVQSEFPDFENQDNVKVTSPLSIPFNKKAGVFLFEYIQKYVPPNDDTIHELTVVENYKEAGQKTLDELKEIIELANFFECTDFMECLGFVIGKKLEDKSVEEIAAYMGVECNAPGHFFDEADGWVHPPADAFQNVQ”, the “soluble on expression in E. coli” value is given as “not soluble”.
As to “MPSLAELTKSLSIAFENGDYAACEKLLPPIKIELIKNNLLIPDLSIQNDIYLNDLMITKRILEVGALASIQTFNFDSFENYFNQLKPYYFSNNHKLSESDKKSKLISLYLLNLLSQNNTTKFHSELQYLDKHIKNLEDDSLLSYPIKLDRWLMEGSYQKAWDLLQSGSQNISEFDSFTDILKSAIRDEIAKNTELSYDFLPLSNIKALLFFNNEKETEKFALERNWPIVNSKVYFNNQSKEKADYEDEMMHEEDQKTNIIEKAMDYAISIENIV”, the “soluble on expression in E. coli” value is listed as “soluble”.
